Target: 3HA-3FLAG-SPAK (mouse, UniProt Q9Z1W9 1-556)
Assay: pull-down

binding result: binds
B1: BioEase-FBXL5 (natural protein)
chain: MAPFPEEVDVFTAPHWRMKQLVGLYCDKLSKTNFSNNNDFRALLQSLYATFKEFKMHEQIENEYIIGLLQQRSQTIYNVHSDNKLSEMLSLFEKGLKNVKNEYEQLNYAKQLKERLEAFTRDFLPHMKEEEEVFQPMLMEYFTYEELKDIKKKVIAQHCSQKDTAELLRGLSLWNHAEERQKFFKYSVDEKSDKEAEVSEHSTGITHLPPEVMLSIFSYLNPQELCRCSQVSMKWSQLTKTGSLWKHLYPVHWARGDWYSGPATELDTEPDDEWVKNRKDESRAFHEWDEDADIDESEESAEESIAISIAQMEKRLLHGLIHNVLPYVGTSVKTLVLAYSSAVSSKMVRQILELCPNLEHLDLTQTDISDSAFDSWSWLGCCQSLRHLDLSGCEKITDVALEKISRALGILTSHQSGFLKTSTSKITSTAWKNKDITMQSTKQYACLHDLTNKGIGEEIDNEHPWTKPVSSENFTSPYVWMLDAEDLADIEDTVEWRHRNVESLCVMETASNFSCSTSGCFSKDIVGLRTSVCWQQHCASPAFAYCGHSFCCTGTALRTMSSLPESSAMCRKAARTRLPRGKDLIYFGSEKSDQETGRVLLFLSLSGCYQITDHGLRVLTLGGGLPYLEHLNLSGCLTITGAGLQDLVSACPSLNDEYFYYCDNINGPHADTASGCQNLQCGFRACCRSGE
modifications: biotin (biotinylated FBXL5, BioEase tag)

Reference: article doi:10.1101/133777 (bioRxiv, 2017)
